Data published in the supplement of paper PMC9170038.

What follows are sequences tested on MS2 coat protein (assay: apparent KD of MS2 coat protein; higher = weaker reporter binding). Conditions: Eterna round: R107; input ligand: arginine 13.2 mM.
Method: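 RNA-MaP round R107: designed RNA switches with theophylline, tryptophan, arginine or FMN aptamers are transcribed on-chip within common flanks. They are titrated with SNAP-549-labelled MS2 coat protein in RNA-MaP buffer (100 mM Tris pH 7.5, 80 mM KCl, 4 mM MgCl2), without ligand or with the indicated ligand. Median apparent KD per design.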

Row | Sequence | apparent KD of MS2 coat protein [nM]
1 | CUUGGCUGUGCGGCCGCCACUGGCUCAUCCUGCAUUACAUGAGGAUCACCCAUGUUGCGGCCUCCCAGGACCGGGCAUAGCCUGA [Usesties] | 127
2 | AUCGUACCUAAUGAUACCAGCAAGUGAUCAUAACAUGAGGAUCACCCAUGUAAUCAGUGAUGCCCUUGGCAGCAUAAUCGAUACA [Same State - Theophylline B (Freestyle 3)] | 103
3 | GGGCGUGUGGCGCGGCGUGCUCCGCUCCGUCGAGGACCGGUACGGCCGCCACUCGACAUGAGGAUCACCCAUGUGCGAGCUCGCG [#1 Exclusion - Tryptophan A Attempt #11 (HarryS)] | 17.6
4 | UUCUUUAAGUCGGCCGCCACUGAAACAUGAGGAUCACCCAUGUAUAUUUGGGUAUAGGUGGAUUACAGGACCGGGACUAUAGUAA [JR_ExcTryptoB_Sub022] | 31.2
5 | GGGCAAGAGGGAAGGAGCGUCGGCUGAGUAACAUGAGGAUCACCCAUGUAGCACAUGGUGUGGCAGGUAGGUCGCCCUCUGCCCU [SS-ArgB8] | 56.1
6 | GCACCAGGUACGGAUACCAGCUGCCAGAGAUACAUGAGGAUCACCCAUGUGACCUGAUUUAGCCCUUGGCAGCUGUACCUGGUGC [SSThB NP+V+V2 #2 Same Structure] | 178
7 | GGCUGUCAUAGGAGGUCAAAUAUACUCGAAGGAGCGUCAUAGUAGGCAGGUAGGUCGCGAGACAUGAGGAUCACCCAUGUAGAGA [xkxmullin] | 37.7
8 | AACAACAAGGGAAGGAGCGCGAAUUAUAGACAUGAGGAUCACCCAUGUAACAUGGGAUUAACGCAGGUAGGUCGCCCACAAACAA [#08 Exclusion - Arginine B] | 80.5
9 | AGAGUUAGACAAAAGUCUAGCUCACCAGAAGGAGCGUCCGAAAGGACAGGUAGGUCGCUGGUACCUGAGGAUCACCCGGGUUCCU [ArgAS 17 #OpenEnded #AlternativeMS2] | 134
10 | GUCCUCGACACGGCCGCCACUGGCUCGCCUGUUGGCGCCGACCCACAUGAGGAUCACCCAUGUUCCAGGACCGGGUGUCACAGCA [theeternabot_sameState_MS2_Trp_B_42] | 64.6
11 | GGGCCCGGGCCCGAUACCAGCAGAGAAAACAUAUAUCCUAACAUGAGGAUCACCCAUGUAUGCCCUUGGCAGCGGGCCCGGGCCC [#15 Exclusion-TheophyllineB] | 32.2
12 | UUCAGCUAGUCGGCCGCCACUACUUGAGGAUCACCCAGGUAAUCCUAACACUGCUUCGGCAGUGGUAGGACCGGGACUAGCUGAG | 24
13 | GAUGAACUAUAUGAUACCAGACAACAUGAGGAUCACCCAUGUGUAAGUCGUCCUCUGCCUGUCCCUUGGCAGCGUAUAGUUUAUC [XTheo B #18] | 43.2
14 | GACCCAUGAGUUGCAAAAGCUCAUGGGUCGCGAGGACCGGUACGGCCGCCACUCGGCUGUACAUGAGGAUCACCCAUGUCAGGGU [#1 Same State - Tryptophan A Attempt #26 (HarryS)] | 54.4
15 | GGGUGCGGCACGGCCGCCACUGCGGUGGUGUGACAUGAGGAUCACCCAUGUUGUCAUGCGGCCCUUAGGACCGGGUGGCGUGCCU [#1 Exclusion - Tryptophan B Attempt #15 (HarryS)] | 5.27
16 | AAAUAAAUACAUGAGGAUCACCCAUGUGAAGGAGCGCGCGUUAGCGCAGGUAGGUCGCACAUGAAAGGGAAGCGAAAGAAAUAAU [MAT - Exclusion Arginine A - Mod of Eli - D16] | 24.9
17 | AGAUUAAAGAGUGAUACCAGACUACAUGAGGAUCACCCAUGUUACAUUUGAGUAGCUUUAGUCCCUUGGCAGCACUUUAUGUACA [JR_Nu_ExcTheophyB_Sub023] | 45.4
18 | GCAUAGUAAAAUGAUACCAGAGUCAAAACAGACAUGAGGAUCACCCAUGUGCAUAUACAACUCCCUUGGCAGCAUUAAAACGGGA [theeternabot_sameState_MS2_Theo_B_28] | 14.2

Row | Sequence | apparent KD of MS2 coat protein [nM]
19 | GCUAGUGGCAGAAGGAGCGAGGCGACAUACGGGUACAUGAGGAUCACCCAUGUGGUGUGUCCUCAGGUAGGUCGCUGCCACUAGC [SSAB NP+V+V2 #12] | 134
20 | UCCGCGGAGACGGCCGCCACUGAGUGAGAAGUCGUGCUCUAACUACAUGAGGAUCACCCAUGUCCCAGGACCGGGUCGAAGUGUU [theeternabot_sameState_MS2_Trp_B_36] | 97.4
21 | AAUGUAUGGCACAUGAGGAUCACCCAUGUGCGAGGACCGGUACGGCCGCCACUCGGUCCUGGGAUCUUACCACUAUACAUUAAUG [XTryp A #21] | 10.2
22 | AAAGAUACCAGAGAUACCAGCCAAAAUUAAAAUAAAACCUCACAUGAGGAUCACCCAUGUGGCCCUUGGCAGCUCCCUUGGCAGC [#DoubbleAptamer 1] | 13.1
23 | GGCACCAGGAGAAGGAGCGUGAAGACAUGAGGAUCACCCAUGUAGAGGCCCGGACAGGGUUCGCAGGUAGGUCGCUCCUGGUGCC [#1 Same State - Arginine B Attempt #10 (HarryS)] | 20.4
24 | GGGUCGGGCGCGGCCGCCACUGCGGUGGUGUGACAUGAGGAUCACCCAUGUUGUCAUGCGGCCCUUAGGACCGGGCGCCCGGCCC [#1 Exclusion - Tryptophan B Attempt #11 (HarryS)] | 19.3
25 | GGACUAACCAGAAGGAGCGACACAAAGCAGAAACUGCAUCCUCCGCACGAGGAUCACCCGUGUCAGGUAGGUCGCUGGUUAGUCG [ArgBX 28] | 54
26 | GCACCAGGUACGGAUACCAGCUGCCACGGUUACAUGAGGAUCACCCAUGUGAUAAGGUGUAGCCCUUGGCAGCUGUACCUGGUGC [SSThB NP+V+V2 #7 +-Same Structure] | 96.9
27 | ACAUGAGGAUCACCCAUGUCUGCCACUGAUACCAGCGGAAGAAAACGCCCUUGGCAGCAGAACAUGAGGAUCACCCAUGUAGGCU [Same State Theophylline A GF29] | 39.6
28 | UGACAUUGCUCAGAUACCAGACAUGAGGAUCACCCAUGUACCAAGGUAAGAAAAUAACAUGUCCCUUGGCAGCUGAGCAAUGUCU [First try #MS2Left #Theo2] | 16.4
29 | GUACACUAGUCGGCCGCCACUGUUACAUGAGGAUCACCCAUGUAGGAUCACCCAUGACAUGAGGAUAGGACCGGGACGCAUGAGG [Exclusion Tryptophan B] | 56.8
30 | AGAGGUGCAACAGAUACCAGUCUACCGUACCUCAGAGAACAUGAGGAUCACCCAUGUAUAGACCCUUGGCAGCUGAUGUUAUUCA [Theo B Ex t3] | 25.7
31 | GGACUAACCAGAAGGAGCGACGCGCAGAAACUGCAAUUUCCUCCACACGAGGAUCACCCGUGUCAGGUAGGUCGCUGGUUAGUCG | 15
32 | AGUACUCGAACGGAUACCAGCCGGACAUGAGGAUCACCCAUGUCCUACCAAUGUUCGGUUGGCCCUUGGCAGCCGUUCGUGUACA [Omei Theo B SS A v5] | 99.5
33 | AAAGGUAGCAAUAAAUCUCCUACAUGUGAAGGAGCGCCCGAAAGGGCAGGUAGGUCGCACAUGAGGAUCACCCAUGUGAGCUACC [ArgEX 5 #SwitchBubble] | 18.9
34 | UCUUUCUAUGUAGAUACCAGCAUGUUAUAUUUCUAAUGACAUGAGGAUCACCCAUGUAAAUGCCCUUGGCAGCUGCGUUUUCUUU [SSTHB #5] | 14.2
35 | GGUAUGUAUUCGGAAACGAAUGCAUACCAACGAGGACCGGUACGGCCGCCACUCGCGGCUGAUCAACAUGAGGAUCACCCAUGUA [Ex Tryptophan A 4] | 19.4
36 | ACAUGAGGAUCACCCAUGUCACGGCACGAUACCAGCUGAUCCGGUGGCCCUUGGCAGCGUGACGUUUGGUCCCGCGGAUGACACG [ppmullin] | 96.5
